Data taken from the supplement of paper PMC9112550, “Optimization of the antimicrobial peptide Bac7 by deep mutational scanning” (BMC Biology, 2022).

tested on: Escherichia coli TOP10; experiment: shrunken log2 fold change of peptide-encoding DNA abundance (4.5 h post-induction vs induction); higher = less antimicrobial activity (less host growth inhibition); conditions: time post-induction: 4.5 h; library: site-saturation at positions 5, 18, 19, 20
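Further: peptides expressed intracellularly from a pBAD plasmid library in pooled LB shake-flask culture, induced with 0.3% L-arabinose, DNA abundance read by NGS, three biological replicates, DESeq2 with apeglm shrinkage.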

| Sequence | shrunken log2 fold change |
| --- | --- |
| RRIRHRPPRLPRPRPRPVAVPRP | -0.0993 |
| RRIRYRPPRLPRPRPRPRWVPRP | -0.0064 |
| RRIRGRPPRLPRPRPRPHPMPRP | 0.497 |
| RRIRSRPPRLPRPRPRPNTDPRP | -0.442 |
| RRIRLRPPRLPRPRPRPWTQPRP | 0.13 |
| RRIRTRPPRLPRPRPRPEFWPRP | 0.445 |
| RRIRDRPPRLPRPRPRPTGQPRP | -0.0665 |
| RRIRMRPPRLPRPRPRPGYMPRP | 0.0502 |
| RRIRERPPRLPRPRPRPEEMPRP | 0.0169 |
| RRIRPRPPRLPRPRPRPLCSPRP | -0.431 |
| RRIRFRPPRLPRPRPRPCRVPRP | -0.129 |
| RRIRMRPPRLPRPRPRPVTCPRP | 0.0862 |
| RRIRDRPPRLPRPRPRPMWNPRP | 0.108 |
| RRIRGRPPRLPRPRPRPADAPRP | 1 |
| RRIRVRPPRLPRPRPRPEWFPRP | -0.154 |
| RRIRDRPPRLPRPRPRPVHIPRP | -0.144 |
| RRIRGRPPRLPRPRPRPHDHPRP | -0.027 |
| RRIRTRPPRLPRPRPRPWDGPRP | 0.0729 |
| RRIRTRPPRLPRPRPRPSSQPRP | -0.153 |
| RRIRKRPPRLPRPRPRPLEQPRP | 0.0352 |
| RRIRQRPPRLPRPRPRPGQRPRP | 0.0565 |
| RRIRRRPPRLPRPRPRPLQGPRP | 0.0475 |
| RRIRARPPRLPRPRPRPGWCPRP | 0.465 |
| RRIRERPPRLPRPRPRPHGEPRP | -0.0812 |
| RRIRSRPPRLPRPRPRPMFTPRP | -0.374 |

| Sequence | shrunken log2 fold change |
| --- | --- |
| RRIRHRPPRLPRPRPRPSAAPRP | 0.334 |
| RRIRNRPPRLPRPRPRPHRWPRP | 0.0666 |
| RRIRCRPPRLPRPRPRPSAPPRP | 0.0889 |
| RRIRVRPPRLPRPRPRPCKHPRP | -0.483 |
| RRIRLRPPRLPRPRPRPLACPRP | -0.454 |
| RRIRMRPPRLPRPRPRPAACPRP | 0.763 |
| RRIRIRPPRLPRPRPRPKFQPRP | -0.327 |
| RRIRNRPPRLPRPRPRPWSAPRP | -0.304 |
| RRIRIRPPRLPRPRPRPFSFPRP | -0.742 |
| RRIRVRPPRLPRPRPRPASKPRP | -0.0732 |
| RRIRFRPPRLPRPRPRPFQMPRP | -0.647 |
| RRIRTRPPRLPRPRPRPINHPRP | -0.718 |
| RRIRGRPPRLPRPRPRPLKGPRP | -0.117 |
| RRIRQRPPRLPRPRPRPSGAPRP | 0.054 |
| RRIRMRPPRLPRPRPRPPAYPRP | 0.608 |
| RRIRDRPPRLPRPRPRPHTSPRP | 0.0247 |
| RRIRWRPPRLPRPRPRPLWNPRP | 0.169 |
| RRIRPRPPRLPRPRPRPKTRPRP | 0.382 |
| RRIRIRPPRLPRPRPRPPIPPRP | 0.00551 |
| RRIRFRPPRLPRPRPRPHNYPRP | -0.633 |
| RRIRPRPPRLPRPRPRPPGCPRP | 0.264 |
| RRIRRRPPRLPRPRPRPWYCPRP | -0.21 |
| RRIRYRPPRLPRPRPRPDVYPRP | -0.0212 |
| RRIRQRPPRLPRPRPRPEDMPRP | 0.0353 |
| RRIRCRPPRLPRPRPRPEPYPRP | -0.364 |

| Sequence | shrunken log2 fold change |
| --- | --- |
| RRIRCRPPRLPRPRPRPAFSPRP | -0.252 |
| RRIRCRPPRLPRPRPRPVEMPRP | 0.0203 |
| RRIRSRPPRLPRPRPRPDCCPRP | 0.227 |
| RRIRCRPPRLPRPRPRPGNCPRP | -0.0286 |
| RRIRPRPPRLPRPRPRPNKGPRP | -0.266 |
| RRIRDRPPRLPRPRPRPPACPRP | 0.0727 |
| RRIRYRPPRLPRPRPRPNGVPRP | 0.0238 |
| RRIRHRPPRLPRPRPRPNKFPRP | -0.284 |
| RRIRNRPPRLPRPRPRPKDLPRP | -0.0125 |
| RRIRKRPPRLPRPRPRPPKGPRP | 0.333 |
| RRIRFRPPRLPRPRPRPVKIPRP | -0.0378 |
| RRIRYRPPRLPRPRPRPFDQPRP | -0.401 |
| RRIRGRPPRLPRPRPRPVMPPRP | 0.16 |
| RRIRMRPPRLPRPRPRPGAPPRP | 1.31 |
| RRIRQRPPRLPRPRPRPVQWPRP | -0.03 |
| RRIRQRPPRLPRPRPRPCEAPRP | 0.00535 |
| RRIRIRPPRLPRPRPRPWNCPRP | -0.000121 |
| RRIRMRPPRLPRPRPRPYDLPRP | -0.242 |
| RRIRLRPPRLPRPRPRPQKVPRP | 0.0989 |
| RRIRIRPPRLPRPRPRPGRNPRP | 0.0581 |
| RRIRQRPPRLPRPRPRPGNDPRP | -0.299 |
| RRIRARPPRLPRPRPRPLQKPRP | 0.586 |
| RRIRIRPPRLPRPRPRPVQNPRP | -0.425 |
| RRIRRRPPRLPRPRPRPQGVPRP | -0.159 |
| RRIRLRPPRLPRPRPRPVRLPRP | 0.576 |
